{"source": "paper PMC8528823", "biological_target": "Mouse Fc (mFc) tagged mink ACE2 (mink (Neovison vison))", "test": "SPR"}
{"substance": "SARS-CoV-2 WT RBD (from UniProt P0DTC2 319-541) (domain or fragment)", "values": [{"measurement": "Kd", "value": 8.16, "unit": "µM"}]}
